This is an account of results in US20250213684A1, “COMBINATION THERAPIES COMPRISING ANTIBODY MOLECULES TO TIM-3” (Novartis AG, priority 2015, published 2025).

The target of test [1] is huTIM-3/his (human) (UniProt Q8TDQ0). Briefly: Biacore, 2nd antibody injection; 1st antibody (competitor) ABTIM3-hum11.
The target is the same in test [2]. As to the kind of experiment: Biacore, 2nd antibody injection; 1st antibody (competitor) ABTIM3-hum21. For orientation: SPR reads the build-up and loss of mass on a sensor chip optically.
For test [3] the target is unchanged. As to the kind of experiment: Biacore, 1st antibody injection on hTIM-3/his captured by anti-His antibody.
Test [4] has the same target. As to the kind of experiment: Biacore, 2nd antibody injection; 1st antibody (competitor) ABTIM3-hum03.
Test [5] has the same target. Briefly: Biacore, 2nd antibody injection; 1st antibody (competitor) huIgG1.

With human IgG1 isotype control (antibody), the change in RU worked out at 3.8 RU in the test with huTIM-3/his (human) [1]; 4.5 RU with huTIM-3/his (human) [2]; 0.27 RU with huTIM-3/his (human) [3]; 4.5 RU in the test with huTIM-3/his (human) [4]; 3.6 RU with huTIM-3/his (human) [5].
